# In patent US20080020412A1, “Aurora expression constructs” (priority 2006, published 2008):
# Residue numbers refer to the chain shown, from its start.
# T1: mouse Aurora-A (Mus musculus, UniProt P97477, K218R/M280L/N164G)
# T1 construct: mouse Aurora-A residues 98-395; GST (N, cleaved yes); made in house; host or cells: E. coli BL21(DE3) Star, co-expressed with lambda phosphatase; a second 98-395 preparation came from insect cells
# T1 sequence (P97477 with tags, fused parts or gaps N164G/K218R/M280L): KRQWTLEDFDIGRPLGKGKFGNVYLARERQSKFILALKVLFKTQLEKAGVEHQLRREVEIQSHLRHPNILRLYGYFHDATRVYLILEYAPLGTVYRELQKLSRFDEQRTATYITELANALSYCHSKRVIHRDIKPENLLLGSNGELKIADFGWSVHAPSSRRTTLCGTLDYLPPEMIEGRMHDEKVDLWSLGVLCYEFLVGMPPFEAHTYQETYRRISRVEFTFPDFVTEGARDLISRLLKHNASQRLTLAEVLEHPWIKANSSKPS
# B1: insect cell-expressed 98-395: insect cell-produced mouse Aurora-A enzyme with residues 98-395 (human residues 107-403) (protein, UniProt P97477 98-395, looked up, fragment)
# chain: GNDSEKEQASLQKTEDTKKRQWTLEDFDIGRPLGKGKFGNVYLARERQSKFILALKVLFKTQLEKANVEHQLRREVEIQSHLRHPNILRLYGYFHDATRVYLILEYAPLGTVYRELQKLSKFDEQRTATYITELANALSYCHSKRVIHRDIKPENLLLGSNGELKIADFGWSVHAPSSRRTTMCGTLDYLPPEMIEGRMHDEKVDLWSLGVLCYEFLVGMPPFEAHTYQETYRRISRVEFTFPDFVTEGARDLISRLLKHNASQRLTLAEVLEHPWIKANSSKPPTGHTSKEPTSKSS
# B2: E. coli-produced 98-395: bacterially produced mouse Aurora-A residues 98-395 with three humanizing and stabilizing mutations (protein)
# chain: B1 chain with N67G, K121R, M183L
# modifications: Mutated Constructs
# notes: bacterially produced mouse Aurora-A residues 98-395 with three humanizing and stabilizing mutations
# B3: E. coli-produced 116-381: E. coli-expressed mouse Aurora-A crystallography construct, residues 116-381 (human residues 125-391) (protein)
# chain: T1 sequence (P97477 with tags, fused parts or gaps N164G/K218R/M280L)
# modifications: Mutated Constructs
# B4: mAurB 7X: truncated mouse Aurora-B with 7 hydrophobic surface residues mutated, GST-tagged (protein, listed as Mus musculus)
# chain: KRQFTIDNFEIGRPLGKGKFGNVYLAREKKSRFIVALKILFKSQIEKEGVEHQLRREIEIQAHLKHPNILQLYNYFYDQQRIYLILEYAPRGELYKELQKSRTFDEQRTATIMEELSDALTYCHKKKVIHRDIKPENLLLGSQGELKIADFGWSVHAPSSRRKTMCGTLDYLPPEMIEGRMHNEKVDLWCIGVLCYELMVGNPPFESPSHSETYRRISKVDLKFPSSVTSGAQDLISKLLKHNPSQRLTLAEVAAHPWVRANSRRPS
# modifications: GST tag
# notes: truncated mouse Aurora-B with 7 hydrophobic surface residues mutated, GST-tagged
# Assays:
# mouse Aurora-A [1] = assay: Aurora-A activity assay (HTRF, enzyme and ATP titrations, histone H3 peptide substrate); type: biochemical; settings: for Km / Vmax/[enzyme]: ATP titration; for Km: 120 nM biotinylated histone H3 peptide, 25° C., fit in GraphPad Prism; for Vmax/[enzyme]: ΔF/hr per nM enzyme
# Procedure: (§1) Protein samples were diluted to 1 mg/mL and incubated for 2 hrs at 4° C. with 1 mM ATP and 5 mM MgCl2. Excess ATP was removed by extensive dialysis against 50 mM Tris-HCl pH 7.5, 200 mM NaCl, and 3 mM DTT.
# (§2) Aurora A was titrated twofold in an assay buffer composed of 10 mM Tris-HCl pH 7.2, 10 mM MgCl2, 0.1% BSA, 0.01% Triton X-100 and 1 mM DTT, and containing 120 nM of biotinylated histone H3 substrate peptide (Upstate Biotechnology). The kinase reactions were initiated by adding 10 μL ATP to a final volume of 60 μL and the final ATP concentration of 20 μM. The reactions were incubated at 25° C. for 60 min and terminated by adding EDTA to a final concentration of 200 mM.
# (§3) To determine the Km for ATP, ATP was titrated twofold in the assay buffer. The kinase reaction was initiated by adding 50 μL Aurora A (16 nM of insect cell-produced mouse enzyme with residues 98-395, 8 nM of the bacterially produced enzyme with residues 98-395, and 30 nM of the E. coli-expressed crystallography construct with residues 116-381) and histone H3 to a final volume of 60 μL and a final concentration of 120 nM.
# (§4) To detect the assay product, the kinase reaction solution was combined with the detection buffer (the KF buffer) supplemented with 0.4 ng/μL phospho-histone H3 europium cryptate-conjugated antibody and 16 nM streptavidin-XL665 (both from Cisbio) in a 1:1 ratio in a 384-well plate. The mixture was incubated for 45 minutes at 25° C. and the plate was then scanned on the Analyst AD system. The fluorescence value F is defined as the ratio of fluorescent emissions at 620 and 665 nm. ΔF was generated by subtracting the average F value for negative control for enzyme activity from the F value in each reaction well. ΔF was plotted against enzyme concentration (for enzyme titrations) or against ATP concentration (for ATP titrations) with GraphPad Prism. The Km values and confidence intervals were determined by fitting the ATP titration curve in GraphPad Prism to the following equation: y=(Vmax*x)/(Km+x), where y is ΔF/hr and x is an ATP concentration.
# mouse Aurora-A [2] = target: T1, mouse Aurora-A; assay: as above; type: biochemical; settings: compared with the longer construct, FIG. 4
# Procedure: as §1, §2, §3, §4
# [3] = Electrospray mass spectrometry of purified protein for proteolysis between residues 291 and 292; type: physicochemical; settings: expressed in E. coli, GST-tagged protein
# Excerpt: mAurB 7X was expressed in E. coli, purified as described below, and analyzed by electrospray mass spectrometry to verify the integrity of the purified protein. […] A construct missing the Val291→Ser and Met258→Lys mutations (referred to as mAurB 5X) was purified, and analyzed by mass spec to determine the extent of proteolysis between Val291 and Lys292. Even in this wild type configuration, proteolysis still affected approximately 25% of total GST-tagged protein. Two additional conservative mutations were introduced to eliminate the major site of proteolysis: Val291→Leu and Lys292→Arg referred to as mAurB 8X VK→LR (5′ primer: SEQ ID NO:53; 3′ primer: SEQ ID NO:54) and Val291→Leu and Lys292→Gln referred to as mAurB 8X VK→LQ (5′ primer: SEQ ID NO:55; 3′ primer: SEQ ID NO:56). The protein sequences of the mAurB 8X VK→LR and mAurB 8X VK→LQ are provided in SEQ ID NO:57 and SEQ ID NO:58, respectively.
# mouse Aurora-B = target: T2, mouse Aurora-B (Mus musculus, UniProt O70126, L215S/L233S/M258K/P302T/P322T/V291S/W318S); assay: Aurora-B enzyme activity assay (HTRF); type: biochemical; settings: 20 nM construct against 300 nM commercially available Aurora-B
# T2 construct: made in house; host or cells: E. coli BL21(DE3) Star
# Procedure: Aurora-B enzyme preparations were tested for kinase activity in the presence and absence of compounds using a homogeneous time resolved fluorescence (HTRF) assay. In brief, the assay was performed by adding enzyme under appropriate reaction conditions to a tagged substrate. After the kinase reaction proceeds, quenching reagent is added, along with a first molecule consisting of a fluorescence donor conjugated to an antibody recognizing the phosphorylated substrate, and a second molecule that recognizes the tag and that is conjugated to a fluorescence acceptor. The extent of the kinase reaction is measured by time-resolved fluorescence transfer from the fluorescence donor to the fluorescence acceptor in a detection buffer, which occurs when the donor and acceptor are in proximity to one another on the phosphorylated substrate.
# The assay was carried out as follows. […]
# A 5 μL aliquot of the quenched reaction was transferred to a separate plate containing 5 μL detection buffer (final concentrations: 125 ng/mL europium cryptate-conjugated α-phospho H3 antibody, 8 nM streptavidin-tagged XL665, 25 mM HEPES buffer (pH 7.0), 0.25 M KF, and 0.05% BSA). The detection solution was allowed to incubate at room temperature for 45 min, after which the detection reactions were read on an Analyst AD (LJL Biosystems). […] Delta F is a value calculated from the ratio between the 665 nm and 620 nm emissions. […]
Molecule,Km (mouse Aurora-A [1]),Vmax/[enzyme] (mouse Aurora-A [1]),change in Km for ATP (in words) (mouse Aurora-A [2]),"enzyme activity (in words) (mouse Aurora-A [1]; H3 peptide as substrate, FIG. 4)",extent of proteolysis between residue 291 and Lys292 [3],activity compared with commercially available Aurora-B (mouse Aurora-B)
B1,13.6 ± 3.9 µM,590 h⁻¹ nM⁻¹,–,–,–,–
B2,10.5 ± 3.5 µM,1035 h⁻¹ nM⁻¹,–,–,–,–
B3,65.3 ± 16.1 µM,280 h⁻¹ nM⁻¹,substantial increase in the Km for ATP,less active,–,–
B4,–,–,–,–,Approximately 50%,compares favorably
